No end group written: not given here.
Biological target: His6-E6AP ligase (full-length, baculovirus-expressed) (human) (UniProt Q05086)
Experiment: inhibition of His6-E6AP-catalyzed 125I-polyubiquitin chain formation, semi-reciprocal plot; non-competitive versus UbcH7

Ac-NRIRMYSERRITVLYSL [N-acetyl-… peptide] showed a Ki of 22 µM.
